In one test the target is S100P (Homo sapiens) (UniProt P25815). Conditions: cited from earlier work.
In test [1] the target is IFNAR2 ECD (Homo sapiens) (UniProt P48551). Conditions: cited from earlier work.
In test [2] the target is recombinant human interferon alfa-2b (human) (UniProt P01563). The test can be described thus: SPR; IFN-α immobilised by amine coupling; S100 proteins as analyte; 25 °C; 10 mM HEPES, 150 mM NaCl, 0.01% TWEEN 20, pH 7.4.
Another test concerns the target Tag7 (Homo sapiens) (UniProt O75594). Conditions: cited from earlier work.

The values below come from PMC7764042.

A value given as a limit tells only on which side of the number the result lay.

Regarding IFN-β (from UniProt P01574), the figures for the Kd (in the test with S100P (Homo sapiens); in test [1]) were 0.3 nM and < 0.1 nM, respectively.

“recombinant human S100A1 (from UniProt P23297 2-94) (natural protein)”: in test [2], the Kd was > 10000 nM.

On to S100A4 (from UniProt P26447), for which the dissociation constant (Kd) in the test with Tag7 (Homo sapiens) is 1 nM.

Take “recombinant human S100A4 (from UniProt P26447 1-101) (natural protein)”: the Kd in test [2] was > 10000 nM.

The term Kd denotes the constant that tells how readily two partners part at equilibrium.
